B1: Thermus thermophilus transcription termination factor Rho (natural protein, UniProt Q5SJE9 1-426, looked up)
chain: MRRKETLQETPLTYQELASKILPELHLLAQEAGIEGYKRMKKDQLIMALLERQTQGEGLRLVKGYLEISQDGYGFLTENLHNLESRVAIVSAGLIKQYALRAGDYVVGQARPPRENERYATLLKVEAVNNLDPEAAKNRPRFDELTPQFPDRQIRLETTPDELSTRVIDLLAPIGRGQRGLIVAPPKAGKTTLLKKIANAVLKNEPDIKVIVLLIDERPEEVTDFRESVQGAEVIASTFDEPPQNHIRVAEFVHERAKRIVEEGGHVMILLDSITRLARANNLVTPPTGRTLSGGLDSAALYFPKRFLGAARNIRGGGSLTILATALVETGSRMDDVIFEEFKGTGNMELHLSRRLEERRIFPAIDILKSGTRREELLLGEEVTHKMWLLRKVLADMDPAEAMEMLLARLARTKNNKEFLASLAAR
B2: Thermus thermophilus RNA polymerase ω subunit (natural protein)
chain: MAEPGIDKLFGMVDSKYRLTVVVAKRAQQLLRHGFKNTVLEPEERPKMQTLEGLFDDPNAVTWAMKELLTGRLVFGENLVPEDRLQKEMERLYPVEREE

Common to all, as to assay: cryo-EM structure
The data set “cryo-EM structure” concerns the molecule itself.
Data set [1] deals with Thermus thermophilus RNA polymerase β subunit (Thermus thermophilus, UniProt Q8RQE9 1-1119).
Data set [2] has as its target Thermus thermophilus RNA polymerase β' subunit (Thermus thermophilus, UniProt Q8RQE8 1-1524).
Data set [3] deals with B1.

Here are results for two molecules from paper doi:10.1101/2022.09.02.506315 (bioRxiv, 2022).

Sequence of Thermus thermophilus RNA polymerase β' subunit (Q8RQE8 whole entry): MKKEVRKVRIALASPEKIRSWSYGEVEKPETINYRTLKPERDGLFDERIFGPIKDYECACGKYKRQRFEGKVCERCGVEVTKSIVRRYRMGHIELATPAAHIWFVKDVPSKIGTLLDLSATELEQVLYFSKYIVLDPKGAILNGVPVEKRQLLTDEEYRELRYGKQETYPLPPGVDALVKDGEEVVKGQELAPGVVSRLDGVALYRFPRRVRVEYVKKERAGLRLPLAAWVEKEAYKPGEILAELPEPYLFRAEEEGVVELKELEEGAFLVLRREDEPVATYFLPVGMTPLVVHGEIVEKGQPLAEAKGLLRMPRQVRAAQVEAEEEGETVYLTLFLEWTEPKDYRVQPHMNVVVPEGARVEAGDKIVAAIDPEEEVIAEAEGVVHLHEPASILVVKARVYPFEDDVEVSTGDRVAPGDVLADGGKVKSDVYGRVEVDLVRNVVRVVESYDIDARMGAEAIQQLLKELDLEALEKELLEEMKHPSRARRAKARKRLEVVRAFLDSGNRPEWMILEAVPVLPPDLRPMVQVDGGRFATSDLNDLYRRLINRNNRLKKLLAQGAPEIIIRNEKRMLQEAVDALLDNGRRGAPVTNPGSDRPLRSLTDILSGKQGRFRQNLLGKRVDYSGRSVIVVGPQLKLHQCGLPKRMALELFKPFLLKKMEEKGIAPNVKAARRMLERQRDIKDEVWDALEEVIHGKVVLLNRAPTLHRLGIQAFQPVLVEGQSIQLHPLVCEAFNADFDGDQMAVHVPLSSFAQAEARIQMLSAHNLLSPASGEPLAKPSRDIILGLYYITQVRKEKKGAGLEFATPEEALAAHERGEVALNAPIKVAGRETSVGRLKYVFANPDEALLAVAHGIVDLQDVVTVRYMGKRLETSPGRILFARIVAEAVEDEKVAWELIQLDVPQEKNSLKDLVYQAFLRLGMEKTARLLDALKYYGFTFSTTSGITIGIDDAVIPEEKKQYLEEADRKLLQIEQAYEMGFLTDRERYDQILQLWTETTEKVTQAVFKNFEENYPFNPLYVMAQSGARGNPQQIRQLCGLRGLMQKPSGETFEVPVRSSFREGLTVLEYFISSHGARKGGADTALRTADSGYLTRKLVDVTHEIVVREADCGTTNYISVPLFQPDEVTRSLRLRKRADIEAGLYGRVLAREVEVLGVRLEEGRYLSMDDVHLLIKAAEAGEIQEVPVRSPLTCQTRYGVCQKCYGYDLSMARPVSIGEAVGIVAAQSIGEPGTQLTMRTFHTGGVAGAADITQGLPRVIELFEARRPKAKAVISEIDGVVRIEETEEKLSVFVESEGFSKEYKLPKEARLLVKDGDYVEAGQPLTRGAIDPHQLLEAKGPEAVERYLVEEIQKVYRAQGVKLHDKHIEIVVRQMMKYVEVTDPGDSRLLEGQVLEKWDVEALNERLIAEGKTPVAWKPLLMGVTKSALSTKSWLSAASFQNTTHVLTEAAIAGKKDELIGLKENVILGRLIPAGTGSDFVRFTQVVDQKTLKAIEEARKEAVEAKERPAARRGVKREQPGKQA
Sequence of Thermus thermophilus RNA polymerase β subunit (Q8RQE9 whole entry): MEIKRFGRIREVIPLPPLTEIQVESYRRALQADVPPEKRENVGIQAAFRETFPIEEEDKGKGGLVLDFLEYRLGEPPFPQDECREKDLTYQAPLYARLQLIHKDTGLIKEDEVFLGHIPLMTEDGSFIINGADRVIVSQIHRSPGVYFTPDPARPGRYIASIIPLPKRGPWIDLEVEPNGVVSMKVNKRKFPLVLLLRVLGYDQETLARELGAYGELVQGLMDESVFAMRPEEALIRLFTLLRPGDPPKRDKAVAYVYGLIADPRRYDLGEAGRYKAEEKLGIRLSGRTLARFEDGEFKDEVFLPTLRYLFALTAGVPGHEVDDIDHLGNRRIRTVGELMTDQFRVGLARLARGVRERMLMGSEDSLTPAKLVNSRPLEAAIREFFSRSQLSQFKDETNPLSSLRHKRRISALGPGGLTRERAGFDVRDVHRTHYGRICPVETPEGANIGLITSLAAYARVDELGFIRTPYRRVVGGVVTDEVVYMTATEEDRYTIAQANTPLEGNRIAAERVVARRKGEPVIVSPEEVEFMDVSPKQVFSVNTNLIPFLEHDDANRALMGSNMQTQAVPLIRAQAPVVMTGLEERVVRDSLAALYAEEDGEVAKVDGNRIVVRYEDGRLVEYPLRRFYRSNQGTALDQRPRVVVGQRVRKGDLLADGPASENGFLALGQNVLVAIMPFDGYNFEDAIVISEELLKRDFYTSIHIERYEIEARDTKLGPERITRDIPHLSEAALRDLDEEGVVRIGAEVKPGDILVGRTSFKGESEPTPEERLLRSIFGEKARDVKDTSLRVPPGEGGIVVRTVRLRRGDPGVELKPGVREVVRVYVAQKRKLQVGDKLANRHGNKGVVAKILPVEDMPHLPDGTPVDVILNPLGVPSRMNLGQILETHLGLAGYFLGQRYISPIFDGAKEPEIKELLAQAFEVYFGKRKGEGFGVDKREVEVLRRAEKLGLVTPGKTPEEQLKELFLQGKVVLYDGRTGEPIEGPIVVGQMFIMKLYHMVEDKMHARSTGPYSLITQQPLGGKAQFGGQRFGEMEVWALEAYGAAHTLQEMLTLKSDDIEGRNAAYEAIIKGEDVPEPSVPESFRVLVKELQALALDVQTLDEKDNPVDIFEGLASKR

Consider B1, for which the “stoichiometry N” value in the data set “cryo-EM structure” turned out to be 6. Moreover, the binding result in data set [1] and in data set [2] was “binds” in each case.

Regarding B2, the binding result in data set [3] is “binds”.

As usually defined, the stoichiometry N is the number of molecules, sites or subunits per partner or assembly.
